Results on three molecules are retold here after publication PMC8876323, “Heat Shock Transcription Factor CgHSF1 Is Required for Melanin Biosynthesis, Appressorium Formation, and Pathogenicity in Colletotrichum gloeosporioides”.

The labels stand for the following.
B1: CMR1-probe (dsDNA)
DNA 1: CGTATCACTTGTTCGAATTTCTCACACATTCGGT
DNA 2: ACCGAATGTGTGAGAAATTCGAACAAGTGATACG
B2: YG-probe (dsDNA)
DNA 1: TGTGGTGGTTTGAGAACATTCACTCAAAGCTCAC
DNA 2: GTGAGCTTTGAGTGAATGTTCTCAAACCACCACA
B3: T4HRa-probe (dsDNA)
DNA 1: CGAGTAAGGCACGCGAAGTTCAGGAGAGAGACCT
DNA 2: AGGTCTCTCTCCTGAACTTCGCGTGCCTTACTCG

This data set concerns the target T1, CgHSF1 (Colletotrichum gloeosporioides).
T1 chain: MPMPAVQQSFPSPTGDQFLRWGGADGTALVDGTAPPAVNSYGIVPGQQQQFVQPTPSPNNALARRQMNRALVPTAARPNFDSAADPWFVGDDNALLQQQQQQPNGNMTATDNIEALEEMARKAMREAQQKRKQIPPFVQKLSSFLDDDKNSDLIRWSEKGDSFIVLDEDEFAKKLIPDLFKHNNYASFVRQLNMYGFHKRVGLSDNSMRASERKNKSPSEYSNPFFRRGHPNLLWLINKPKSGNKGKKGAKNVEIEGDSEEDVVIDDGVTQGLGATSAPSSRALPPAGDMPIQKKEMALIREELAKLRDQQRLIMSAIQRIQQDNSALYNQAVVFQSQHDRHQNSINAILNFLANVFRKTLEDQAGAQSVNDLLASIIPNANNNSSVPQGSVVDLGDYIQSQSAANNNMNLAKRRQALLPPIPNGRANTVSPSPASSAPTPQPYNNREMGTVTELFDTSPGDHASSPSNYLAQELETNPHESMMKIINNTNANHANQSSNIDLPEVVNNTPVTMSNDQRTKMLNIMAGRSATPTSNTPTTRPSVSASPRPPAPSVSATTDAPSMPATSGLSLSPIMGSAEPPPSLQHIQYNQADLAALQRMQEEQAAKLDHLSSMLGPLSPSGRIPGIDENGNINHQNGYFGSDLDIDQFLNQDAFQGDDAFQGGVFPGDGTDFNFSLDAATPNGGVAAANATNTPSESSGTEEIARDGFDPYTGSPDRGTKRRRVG
Nature of the data set: EMSA. The note with it: protein: recombinant; tags: His (Ni-NTA purified, pCOLD vector); blunt. For orientation: A gel shift assay detects complexes by their altered migration in electrophoresis.
As to B1, the binding result is “binds”.

Turning to B2, the binding result is on record as “binds”.

Regarding B3, the binding result is given as “binds”.
